How the values were obtained:
human EGFR [1] = biological target: T1, human EGFR (human, UniProt P00533 25-645); test: SPR with purified IgG on EGFR; column head 10^-4 (s-1)
T1 construct: Recombinant EGFR as used in SPR, ELISA and BLI; The phage selections used the EGFR ectodomain; also called immobilized EGFR; EGFR ectodomain (ECD)

EGFR fragment D3-D4 = EGFR fragment D3-D4 (Homo sapiens (Human), UniProt P00533 334-645, limits assumed); test: flow cytometry on transfected HEK293T cells
human EGFR [2] = biological target: T1, human EGFR; test: SPR with purified IgG on EGFR; column head 10^5 (s-1M-1)
human EGFR [3] = biological target: T1, human EGFR; test: SPR, IgG; optimized variant IgG ER-2a
EGFR-D28 = biological target: T2, EGFR-D28 (Homo sapiens (Human), UniProt P00533 25-1210); test: flow cytometry on transfected cells
T2 construct: The deletion Cys240-Cys267 must be applied to the entry

EGFRvIII = biological target: T3, EGFRvIII (UniProt P00533 25-1210); test: flow cytometry on transfected cells
T3 construct: whole, on cells; The deletion must be applied to it

EGFR fragment D1-D2 = EGFR fragment D1-D2 (Homo sapiens (Human), UniProt P00533 25-334, limits assumed); test: flow cytometry on transfected HEK293T cells, saturating IgG, signal normalized

| Binder | koff (human EGFR [1]) [s⁻¹] | binding result (EGFR fragment D3-D4) | kon (human EGFR [2]) [M⁻¹ s⁻¹] | Kd (human EGFR [3]) [nM] | binding result (EGFR-D28) | binding result (EGFRvIII) | binding result (EGFR fragment D1-D2) |
| --- | --- | --- | --- | --- | --- | --- | --- |
| IgG ER-2a (antibody, V domains shown, IgG; also called Ab ER-2a) VH: EVQLVESGGGLVQPGGSLRLSCAASGFDVYYAAMHWVRQAPGKGLEWVASISPYYGYTSYADSVKGRFTISADTSKNTAYLQMNSLRAEDTAVYYCARYYHFSWHWSSFGGSYYPGMDYWGQGTLVTVSS VL: not shown | 6.1e-05 | no binding (tested: saturating IgG concentrations) | 220000 | 0.28 | no binding (tested: saturating IgG concentrations) | no binding (tested: saturating IgG concentrations) | – |
| IgG ER-3a (antibody, V domains shown, IgG; also called Ab ER-3a) VH: EVQLVESGGGLVQPGGSLRLSCAASGFDLYSYSMHWVRQAPGKGLEWVASVSPSSGSTYYADSVKGRFTISADTSKNTAYLQMNSLRAEDTAVYYCARHWHVYPSYYWGGFDYWGQGTLVTVSS VL: not shown | – | – | – | – | – | – | no binding |
